Test results published in article PMC10757926, “Two birds with one stone: human SIRPα nanobodies for functional modulation and in vivo imaging of myeloid cells” (Frontiers in Immunology, 2023).
Changes are numbered by the printed parent chain. Names may count otherwise. Values belong to the binder of their own block, whether it stands above or below them.

Key:
[1] = biological target: T1, biotinylated recombinant hSIRPα (extracellular portion) (Homo sapiens, UniProt P78324, biotin (Sulfo-NHS-LC-LC-Biotin)); experiment: BLI; Octet RED96e; biotinylated hSIRPα (5 µg/mL) immobilised on streptavidin biosensors; Nbs 0.625 nM to 320 nM in Octet buffer (PBS, 0.1% BSA, 0.02% Tween-20); association 240 s, dissociation 720 s; 1:1 model, global fit; settings: both partners purified
T1 construct: signal-regulatory protein α (SIRPα), human, recombinant extracellular portion; also called biotinylated hSIRPα; signal-regulatory protein α; source: bought: Acrobiosystems
T1 sequence (P78324 31-373): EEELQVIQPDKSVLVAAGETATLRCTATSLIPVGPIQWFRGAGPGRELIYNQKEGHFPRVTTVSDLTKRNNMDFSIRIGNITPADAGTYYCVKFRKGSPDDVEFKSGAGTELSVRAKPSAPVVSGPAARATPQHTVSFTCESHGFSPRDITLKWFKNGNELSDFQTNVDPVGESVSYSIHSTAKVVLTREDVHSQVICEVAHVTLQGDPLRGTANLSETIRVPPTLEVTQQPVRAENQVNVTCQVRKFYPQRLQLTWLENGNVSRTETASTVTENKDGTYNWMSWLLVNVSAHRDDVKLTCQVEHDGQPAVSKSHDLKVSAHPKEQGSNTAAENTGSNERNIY

recombinant hSIRPα = biological target: T2, recombinant hSIRPα (human, UniProt P78324); experiment: HDX-MS; hSIRPα with Nb S8, S33 or S36; methods not in the text shown; settings: both partners purified
T2 construct: signal-regulatory protein α (SIRPα), human, recombinant extracellular portion; source: bought: Acrobiosystems
T2 sequence (P78324 31-373): as above

[2] = biological target: T3, hSIRPβ1 displayed on U2OS cells (Homo sapiens, UniProt O00241); experiment: immunostaining of cells or tissue; live-cell immunofluorescence on U2OS cells expressing the target; unlabeled Nbs (1 nM to 100 nM) with Cy5-labeled anti-VHH, 1 h at 37°C; settings: one partner purified
T3 construct: signal-regulatory protein β1 (SIRPβ1), human; source: U2OS, transiently expressing, on live cells
T3 sequence (O00241 30-398): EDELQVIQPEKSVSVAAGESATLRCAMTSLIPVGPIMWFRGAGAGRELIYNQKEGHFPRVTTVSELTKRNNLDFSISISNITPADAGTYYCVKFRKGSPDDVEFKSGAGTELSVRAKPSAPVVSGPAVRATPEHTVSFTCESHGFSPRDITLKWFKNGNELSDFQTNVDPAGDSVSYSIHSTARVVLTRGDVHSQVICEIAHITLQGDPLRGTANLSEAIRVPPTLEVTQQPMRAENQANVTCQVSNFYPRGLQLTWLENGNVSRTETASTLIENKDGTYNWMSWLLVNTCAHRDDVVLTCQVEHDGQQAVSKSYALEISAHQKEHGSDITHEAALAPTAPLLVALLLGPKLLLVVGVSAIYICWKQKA

[3] = biological target: T4, full-length hSIRPα on U2OS cells (Homo sapiens, UniProt P78324); experiment: as above; settings: one partner purified
T4 construct: signal-regulatory protein α (SIRPα), human, full-length, co-expressed with IRES-derived GFP; also called U2OS-hSIRPα; source: U2OS, stably expressing, on live cells
T4 sequence (P78324 31-504): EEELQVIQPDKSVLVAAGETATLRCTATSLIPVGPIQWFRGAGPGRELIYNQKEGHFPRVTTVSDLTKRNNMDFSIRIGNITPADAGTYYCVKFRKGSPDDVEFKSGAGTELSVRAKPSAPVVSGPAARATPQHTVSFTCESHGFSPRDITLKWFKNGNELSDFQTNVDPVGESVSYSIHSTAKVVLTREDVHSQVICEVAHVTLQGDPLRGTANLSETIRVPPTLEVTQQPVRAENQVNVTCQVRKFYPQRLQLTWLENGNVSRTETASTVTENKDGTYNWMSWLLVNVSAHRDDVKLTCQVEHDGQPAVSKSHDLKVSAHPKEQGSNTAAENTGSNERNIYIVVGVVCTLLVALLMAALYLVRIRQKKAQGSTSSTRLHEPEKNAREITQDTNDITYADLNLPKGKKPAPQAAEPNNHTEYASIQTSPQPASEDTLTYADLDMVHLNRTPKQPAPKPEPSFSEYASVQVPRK

[4] = biological target: T5, hSIRPα domain 3 displayed on U2OS cells (Homo sapiens, UniProt P78324); experiment: as above; settings: one partner purified
T5 construct: signal-regulatory protein α (SIRPα), human, domain 3; also called hSIRPαD3; D3; source: U2OS, transiently expressing, on live cells
T5 sequence (P78324 whole entry, looked up, tested part not stated): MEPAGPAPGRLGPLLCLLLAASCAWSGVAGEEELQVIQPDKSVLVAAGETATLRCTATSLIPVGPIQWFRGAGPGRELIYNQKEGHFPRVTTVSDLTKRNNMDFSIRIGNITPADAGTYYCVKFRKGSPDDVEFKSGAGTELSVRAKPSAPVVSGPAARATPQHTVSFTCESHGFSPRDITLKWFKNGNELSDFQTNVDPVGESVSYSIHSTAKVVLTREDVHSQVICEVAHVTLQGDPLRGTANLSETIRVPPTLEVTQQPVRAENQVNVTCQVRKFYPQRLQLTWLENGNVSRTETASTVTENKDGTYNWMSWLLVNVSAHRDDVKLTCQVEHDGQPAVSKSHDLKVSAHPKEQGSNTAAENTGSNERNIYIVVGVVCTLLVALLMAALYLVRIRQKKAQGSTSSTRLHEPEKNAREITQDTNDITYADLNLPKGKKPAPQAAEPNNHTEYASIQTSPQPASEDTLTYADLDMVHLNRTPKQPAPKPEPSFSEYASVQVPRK

[5] = biological target: T6, hSIRPα-V1 displayed on U2OS cells (Homo sapiens, allele V1, UniProt P78324); experiment: as above; settings: one partner purified
T6 construct: signal-regulatory protein α (SIRPα), human, allelic variant V1; also called hSIRPα variant V1; source: U2OS, transiently expressing, on live cells
T6 sequence (P78324 31-504): as the sequence (P78324 31-504) above

[6] = biological target: T7, hSIRPα domain 2 displayed on U2OS cells (Homo sapiens, UniProt P78324); experiment: as above; settings: one partner purified
T7 construct: signal-regulatory protein α (SIRPα), human, domain 2; also called hSIRPαD2; D2; source: U2OS, transiently expressing, on live cells
T7 sequence (P78324 whole entry, looked up, tested part not stated): as the sequence (P78324 whole entry, looked up, tested part not stated) above

[7] = biological target: T8, murine SIRPα displayed on U2OS cells (Mus musculus, UniProt P97797); experiment: as above; settings: one partner purified
T8 construct: signal-regulatory protein α (SIRPα), mouse; also called mouse SIRPα; source: U2OS, transiently expressing, on live cells
T8 sequence (P97797 32-513): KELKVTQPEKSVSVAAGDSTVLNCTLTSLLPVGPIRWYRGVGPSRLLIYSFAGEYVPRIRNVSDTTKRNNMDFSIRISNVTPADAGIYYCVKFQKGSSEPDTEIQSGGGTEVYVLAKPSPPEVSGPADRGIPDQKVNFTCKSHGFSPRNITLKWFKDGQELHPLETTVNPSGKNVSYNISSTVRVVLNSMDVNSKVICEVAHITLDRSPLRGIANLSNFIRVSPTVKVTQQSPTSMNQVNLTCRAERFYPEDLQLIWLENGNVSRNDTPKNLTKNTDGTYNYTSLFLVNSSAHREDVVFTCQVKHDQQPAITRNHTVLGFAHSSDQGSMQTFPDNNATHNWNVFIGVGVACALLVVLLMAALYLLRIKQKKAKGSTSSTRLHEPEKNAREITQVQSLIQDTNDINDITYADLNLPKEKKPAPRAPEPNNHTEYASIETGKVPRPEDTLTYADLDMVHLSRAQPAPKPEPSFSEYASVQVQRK

[8] = biological target: T9, hSIRPγ displayed on U2OS cells (Homo sapiens, UniProt Q9P1W8); experiment: as above; settings: one partner purified
T9 construct: signal-regulatory protein γ (SIRPγ), human; also called hSIRPy; source: U2OS, transiently expressing, on live cells
T9 sequence (Q9P1W8 29-387): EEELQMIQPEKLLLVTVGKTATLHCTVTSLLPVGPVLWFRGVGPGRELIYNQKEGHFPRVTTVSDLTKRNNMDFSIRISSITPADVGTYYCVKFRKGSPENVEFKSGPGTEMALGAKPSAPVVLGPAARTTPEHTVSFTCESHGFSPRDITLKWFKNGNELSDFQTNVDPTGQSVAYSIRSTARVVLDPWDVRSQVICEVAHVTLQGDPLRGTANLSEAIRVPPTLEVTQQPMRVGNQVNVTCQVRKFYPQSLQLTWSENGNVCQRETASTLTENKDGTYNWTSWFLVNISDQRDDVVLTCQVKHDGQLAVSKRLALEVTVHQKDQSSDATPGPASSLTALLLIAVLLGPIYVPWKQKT

[9] = biological target: T10, hSIRPα on HT1080 hSIRPα knock-in cells (Homo sapiens, UniProt P78324); experiment: radioligand binding; antigen excess binding assay: 1 ng (2 MBq/µg) of ^64Cu-hSIRPα-S36K>R Nb on an increasing number of HT1080-hSIRPα cells, 1 h at 37°C; cell-bound radioactivity counted; settings: one partner purified
T10 construct: signal-regulatory protein α (SIRPα), human; source: HT1080 hSIRPα knock-in (KI) cells, on cells
T10 sequence (P78324 31-504): as the sequence (P78324 31-504) above

- binding result [1]: binds
- binding result (recombinant hSIRPα): binds
- binding result [2]: binds
- binding result [3]: binds
- binding result [4]: no binding (tested: Nbs 1 nM to 100 nM)
- binding result [5]: binds
- binding result [6]: binds
- binding result [7]: no binding (tested: Nbs 1 nM to 100 nM)
- binding result [8]: binds
B1: hSIRPα-S36 Nb (VHH)
VHH: EVQLVESGGGLVQPGGSLRLSCAASGFTLDYYAIGWFRQVPGKEREGVSCISSDGGGNTYYADSVKGRFTISRDNAKNTVYLQMNSLKPEDSAVYSCAAGPTYYSGSYCRDPHSDYDYWGQGTQVTVSS
notes: selected against the entire extracellular portion of hSIRPα; also called Nb S36; original S36 Nb; source: E. coli XL-1, purified (IMAC, SEC); not shown: His tag (from the IMAC purification)

- binding result [9]: binds
B2: ^64Cu-hSIRPα-S36K>R Nb (VHH)
VHH: B1 VHH with K43R, K66R, K77R, K88R
notes: as the VHH of m15 (S36 with all four lysine residues replaced by arginine); also called ^64Cu-labeled hSIRPα-S36K>R Nb; source: E. coli, purified; chelator conjugated and radiolabeled with ^64Cu
